Data reported in ChEMBL document CHEMBL2074551, “Drug resistance and ATP-dependent conjugate transport mediated by the apical multidrug resistance protein, MRP2, permanently expressed in human and canine cells” (Mol Pharmacol, 1999).

What was measured:
[1] = substrate: CCCCC/C=C\C\C=C/C=C/C=C/[C@@H](SC[C@@H](NC(=O)CC[C@H](N)C(=O)O)C(=O)NCC(=O)O)[C@@H](O)CCCC(=O)O; assay: (§1) TP_TRANSPORTER: uptake in membrane vesicle from MRP2-expressing HEK-293 cells; assay type: functional, cell membranes, HEK293
[2] = substrate: C[C@]12CC[C@@H]3c4ccc(O)cc4CC[C@H]3[C@@H]1CC[C@@H]2O[C@@H]1O[C@H](C(=O)O)[C@@H](O)[C@H](O)[C@H]1O; assay: as §1; assay type: functional, cell membranes, HEK293

B1: ATP-binding cassette sub-family C member 2 (Rattus norvegicus) (protein)
chain: MDKFCNSTFWDLSLLESPEADLPLCFEQTVLVWIPLGFLWLLAPWQLYSVYRSRTKRSSITKFYLAKQVFVVFLLILAAIDLSLALTEDTGQATVPPVRYTNPILYLCTWLLVLAVQHSRQWCVRKNSWFLSLFWILSVLCGVFQFQTLIRALLKDSKSNMAYSYLFFVSYGFQIVLLILTAFSGPSDSTQTPSVTASFLSSITFSWYDRTVLKGYKHPLTLEDVWDIDEGFKTRSVTSKFEAAMTKDLQKARQAFQRRLQKSQRKPEATLHGLNKKQSQSQDVLVLEEAKKKSEKTTKDYPKSWLIKSLFKTFHVVILKSFILKLIHDLLVFLNPQLLKLLIGFVKSSNSYVWFGYICAILMFAVTLIQSFCLQSYFQHCFVLGMCVRTTVMSSIYKKALTLSNLARKQYTIGETVNLMSVDSQKLMDATNYMQLVWSSVIQITLSIFFLWRELGPSILAGVGVMVLLIPVNGVLATKIRNIQVQNMKNKDKRLKIMNEILSGIKILKYFAWEPSFQEQVQGIRKKELKNLLRFGQLQSLLIFILQITPILVSVVTFSVYVLVDSANVLNAEKAFTSITLFNILRFPLSMLPMVTSSILQASVSVDRLERYLGGDDLDTSAIRRVSNFDKAVKFSEASFTWDPDLEATIQDVNLDIKPGQLVAVVGTVGSGKSSLVSAMLGEMENVHGHITIQGSTAYVPQQSWIQNGTIKDNILFGSEYNEKKYQQVLKACALLPDLEILPGGDMAEIGEKGINLSGGQKQRVSLARAAYQDADIYILDDPLSAVDAHVGKHIFNKVVGPNGLLAGKTRIFVTHGIHFLPQVDEIVVLGKGTILEKGSYRDLLDKKGVFARNWKTFMKHSGPEGEATVNNDSEAEDDDDGLIPTMEEIPEDAASLAMRRENSLRRTLSRSSRSSSRRGKSLKNSLKIKNVNVLKEKEKEVEGQKLIKKEFVETGKVKFSIYLKYLQAVGWWSILFIILFYGLNNVAFIGSNLWLSAWTSDSDNLNGTNNSSSHRDMRIGVFGALGLAQGICLLISTLWSIYACRNASKALHGQLLTNILRAPMRFFDTTPTGRIVNRFSGDISTVDDLLPQTLRSWMMCFFGIAGTLVMICMATPVFAIIIIPLSILYISVQVFYVATSRQLRRLDSVTKSPIYSHFSETVTGLPIIRAFEHQQRFLAWNEKQIDINQKCVFSWITSNRWLAIRLELVGNLVVFCSALLLVIYRKTLTGDVVGFVLSNALNITQTLNWLVRMTSEAETNIVAVERISEYINVENEAPWVTDKRPPADWPRHGEIQFNNYQVRYRPELDLVLKGITCNIKSGEKVGVVGRTGAGKSSLTNCLFRILESAGGQIIIDGIDVASIGLHDLRERLTIIPQDPILFSGSLRMNLDPFNKYSDEEVWRALELAHLRSFVSGLQLGLLSEVTEGGDNLSIGQRQLLCLGRAVLRKSKILVLDEATAAVDLETDSLIQTTIRKEFSQCTVITIAHRLHTIMDSDKIMVLDNGKIVEYGSPEELLSNRGSFYLMAKEAGIENVNHTEL
Km [1]: 1.1 µM | Km [2]: 6.9 µM

B2: ATP-binding cassette sub-family C member 2 (Homo sapiens) (protein)
chain: MLEKFCNSTFWNSSFLDSPEADLPLCFEQTVLVWIPLGYLWLLAPWQLLHVYKSRTKRSSTTKLYLAKQVFVGFLLILAAIELALVLTEDSGQATVPAVRYTNPSLYLGTWLLVLLIQYSRQWCVQKNSWFLSLFWILSILCGTFQFQTLIRTLLQGDNSNLAYSCLFFISYGFQILILIFSAFSENNESSNNPSSIASFLSSITYSWYDSIILKGYKRPLTLEDVWEVDEEMKTKTLVSKFETHMKRELQKARRALQRRQEKSSQQNSGARLPGLNKNQSQSQDALVLEDVEKKKKKSGTKKDVPKSWLMKALFKTFYMVLLKSFLLKLVNDIFTFVSPQLLKLLISFASDRDTYLWIGYLCAILLFTAALIQSFCLQCYFQLCFKLGVKVRTAIMASVYKKALTLSNLARKEYTVGETVNLMSVDAQKLMDVTNFMHMLWSSVLQIVLSIFFLWRELGPSVLAGVGVMVLVIPINAILSTKSKTIQVKNMKNKDKRLKIMNEILSGIKILKYFAWEPSFRDQVQNLRKKELKNLLAFSQLQCVVIFVFQLTPVLVSVVTFSVYVLVDSNNILDAQKAFTSITLFNILRFPLSMLPMMISSMLQASVSTERLEKYLGGDDLDTSAIRHDCNFDKAMQFSEASFTWEHDSEATVRDVNLDIMAGQLVAVIGPVGSGKSSLISAMLGEMENVHGHITIKGTTAYVPQQSWIQNGTIKDNILFGTEFNEKRYQQVLEACALLPDLEMLPGGDLAEIGEKGINLSGGQKQRISLARATYQNLDIYLLDDPLSAVDAHVGKHIFNKVLGPNGLLKGKTRLLVTHSMHFLPQVDEIVVLGNGTIVEKGSYSALLAKKGEFAKNLKTFLRHTGPEEEATVHDGSEEEDDDYGLISSVEEIPEDAASITMRRENSFRRTLSRSSRSNGRHLKSLRNSLKTRNVNSLKEDEELVKGQKLIKKEFIETGKVKFSIYLEYLQAIGLFSIFFIILAFVMNSVAFIGSNLWLSAWTSDSKIFNSTDYPASQRDMRVGVYGALGLAQGIFVFIAHFWSAFGFVHASNILHKQLLNNILRAPMRFFDTTPTGRIVNRFAGDISTVDDTLPQSLRSWITCFLGIISTLVMICMATPVFTIIVIPLGIIYVSVQMFYVSTSRQLRRLDSVTRSPIYSHFSETVSGLPVIRAFEHQQRFLKHNEVRIDTNQKCVFSWITSNRWLAIRLELVGNLTVFFSALMMVIYRDTLSGDTVGFVLSNALNITQTLNWLVRMTSEIETNIVAVERITEYTKVENEAPWVTDKRPPPDWPSKGKIQFNNYQVRYRPELDLVLRGITCDIGSMEKIGVVGRTGAGKSSLTNCLFRILEAAGGQIIIDGVDIASIGLHDLREKLTIIPQDPILFSGSLRMNLDPFNNYSDEEIWKALELAHLKSFVASLQLGLSHEVTEAGGNLSIGQRQLLCLGRALLRKSKILVLDEATAAVDLETDNLIQTTIQNEFAHCTVITIAHRLHTIMDSDKVMVLDNGKIIECGSPEELLQIPGPFYFMAKEAGIENVNSTKF
Km [1]: 1 µM | Km [2]: 7.2 µM
